# According to article PMC4828312:
# Experiments:
# [1] = target: Human recombinant tubulin β-3 (TUBB3) (human) (UniProt Q13509); experiment: SPR
# [2] = target: Assembled microtubules (containing ~25% of TUBB3) (porcine); experiment: SPR
# Human recombinant tubulin β-3 (TUBB3) (human), sequence (Q13509 whole entry): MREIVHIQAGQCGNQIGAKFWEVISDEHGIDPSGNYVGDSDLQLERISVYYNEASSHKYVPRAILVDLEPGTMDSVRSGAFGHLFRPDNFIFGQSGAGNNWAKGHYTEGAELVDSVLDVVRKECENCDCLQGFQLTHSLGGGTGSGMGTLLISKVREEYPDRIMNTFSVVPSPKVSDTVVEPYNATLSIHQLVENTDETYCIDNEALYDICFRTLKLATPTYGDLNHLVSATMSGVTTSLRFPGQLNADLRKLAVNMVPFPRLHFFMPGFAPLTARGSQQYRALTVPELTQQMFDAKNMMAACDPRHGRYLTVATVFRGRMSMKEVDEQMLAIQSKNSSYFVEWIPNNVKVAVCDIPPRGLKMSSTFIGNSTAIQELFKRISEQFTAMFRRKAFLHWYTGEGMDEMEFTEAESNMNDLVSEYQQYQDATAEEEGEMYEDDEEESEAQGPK
Substance,Kd [1],Kd [2]
"HIV-1 envelope glycoprotein gp120, strain ADA (natural protein)",10.3 nM,12 nM
"HIV-1 envelope glycoprotein gp120, strain IIIB (from UniProt P04578 33-511) (natural protein)",,10 nM
"HIV-1 envelope glycoprotein gp120, strain MN (from UniProt P05877 32-513) (natural protein)",,62.7 nM
